Experiments:
Test in all cases: SPR, mAb captured, C2 mutant analyte;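 further: Anti-C2 mAbs captured on goat anti-human IgG Biacore CM5 chips, alanine or serine C2 surface mutants flowed over at 37 °C, double-referenced sensorgrams fitted to a 1:1 binding model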
human C2 G677A = target: T1, human C2 G677A (human, UniProt P06681 21-752)
T1 sequence: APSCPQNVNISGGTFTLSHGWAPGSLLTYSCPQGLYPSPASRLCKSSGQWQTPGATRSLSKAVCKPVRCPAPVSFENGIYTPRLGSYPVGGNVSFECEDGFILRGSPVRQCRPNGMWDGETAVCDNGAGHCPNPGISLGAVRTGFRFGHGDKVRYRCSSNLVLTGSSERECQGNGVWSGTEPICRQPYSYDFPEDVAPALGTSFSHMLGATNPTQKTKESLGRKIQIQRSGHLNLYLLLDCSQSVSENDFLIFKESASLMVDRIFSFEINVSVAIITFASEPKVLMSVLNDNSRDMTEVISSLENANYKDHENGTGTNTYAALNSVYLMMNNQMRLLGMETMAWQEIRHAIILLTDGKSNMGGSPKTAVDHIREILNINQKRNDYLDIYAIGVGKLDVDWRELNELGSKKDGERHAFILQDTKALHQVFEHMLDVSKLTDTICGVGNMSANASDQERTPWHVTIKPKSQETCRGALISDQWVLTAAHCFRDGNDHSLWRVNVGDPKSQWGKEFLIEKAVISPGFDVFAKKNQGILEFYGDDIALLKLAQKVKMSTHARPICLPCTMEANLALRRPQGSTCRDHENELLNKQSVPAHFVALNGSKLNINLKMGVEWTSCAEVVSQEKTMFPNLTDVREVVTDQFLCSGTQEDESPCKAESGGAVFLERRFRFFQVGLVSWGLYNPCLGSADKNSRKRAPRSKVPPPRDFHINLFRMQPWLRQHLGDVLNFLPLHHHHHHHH

human C2 N268A = target: T2, human C2 N268A (human, UniProt P06681 21-752)
T2 sequence: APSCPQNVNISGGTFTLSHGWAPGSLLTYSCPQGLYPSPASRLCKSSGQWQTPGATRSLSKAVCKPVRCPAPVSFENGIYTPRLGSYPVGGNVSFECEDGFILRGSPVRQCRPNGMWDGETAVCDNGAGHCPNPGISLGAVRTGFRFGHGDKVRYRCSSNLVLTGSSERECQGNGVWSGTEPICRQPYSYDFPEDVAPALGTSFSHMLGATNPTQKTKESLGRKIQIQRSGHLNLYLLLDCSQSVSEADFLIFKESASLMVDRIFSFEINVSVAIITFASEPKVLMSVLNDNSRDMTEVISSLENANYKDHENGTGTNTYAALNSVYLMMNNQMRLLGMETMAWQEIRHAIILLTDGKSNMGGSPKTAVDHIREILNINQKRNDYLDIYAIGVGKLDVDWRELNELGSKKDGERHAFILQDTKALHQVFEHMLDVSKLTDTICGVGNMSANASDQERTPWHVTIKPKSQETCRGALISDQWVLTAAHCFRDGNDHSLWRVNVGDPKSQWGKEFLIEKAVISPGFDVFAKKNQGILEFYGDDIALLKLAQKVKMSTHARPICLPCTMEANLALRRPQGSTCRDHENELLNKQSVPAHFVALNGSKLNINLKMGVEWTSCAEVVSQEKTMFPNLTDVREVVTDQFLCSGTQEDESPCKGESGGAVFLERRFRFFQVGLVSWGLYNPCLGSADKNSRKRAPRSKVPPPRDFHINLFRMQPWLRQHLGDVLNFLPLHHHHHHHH

human C2 D269A = target: T3, human C2 D269A (human, UniProt P06681 21-752)
T3 sequence: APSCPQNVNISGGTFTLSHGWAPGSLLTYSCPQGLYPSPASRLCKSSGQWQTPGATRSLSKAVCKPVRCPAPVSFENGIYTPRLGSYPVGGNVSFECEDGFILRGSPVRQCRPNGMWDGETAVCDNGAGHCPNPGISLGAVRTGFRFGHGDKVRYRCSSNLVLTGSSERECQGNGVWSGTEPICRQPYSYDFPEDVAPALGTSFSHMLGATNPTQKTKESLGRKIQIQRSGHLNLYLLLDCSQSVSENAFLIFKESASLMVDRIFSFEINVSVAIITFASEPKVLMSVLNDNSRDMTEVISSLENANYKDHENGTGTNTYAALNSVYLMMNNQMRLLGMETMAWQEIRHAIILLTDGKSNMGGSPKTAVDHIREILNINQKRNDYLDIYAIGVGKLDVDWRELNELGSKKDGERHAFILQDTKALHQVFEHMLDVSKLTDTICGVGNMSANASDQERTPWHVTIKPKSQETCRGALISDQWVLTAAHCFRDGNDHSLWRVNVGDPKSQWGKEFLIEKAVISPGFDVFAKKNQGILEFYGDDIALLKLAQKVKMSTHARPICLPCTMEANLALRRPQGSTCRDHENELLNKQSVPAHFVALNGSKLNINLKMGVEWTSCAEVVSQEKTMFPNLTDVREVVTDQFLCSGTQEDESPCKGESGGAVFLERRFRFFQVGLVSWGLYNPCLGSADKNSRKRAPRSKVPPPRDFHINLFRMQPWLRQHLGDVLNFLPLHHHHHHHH

human C2 N424A = target: T4, human C2 N424A (human, UniProt P06681 21-752)
T4 sequence: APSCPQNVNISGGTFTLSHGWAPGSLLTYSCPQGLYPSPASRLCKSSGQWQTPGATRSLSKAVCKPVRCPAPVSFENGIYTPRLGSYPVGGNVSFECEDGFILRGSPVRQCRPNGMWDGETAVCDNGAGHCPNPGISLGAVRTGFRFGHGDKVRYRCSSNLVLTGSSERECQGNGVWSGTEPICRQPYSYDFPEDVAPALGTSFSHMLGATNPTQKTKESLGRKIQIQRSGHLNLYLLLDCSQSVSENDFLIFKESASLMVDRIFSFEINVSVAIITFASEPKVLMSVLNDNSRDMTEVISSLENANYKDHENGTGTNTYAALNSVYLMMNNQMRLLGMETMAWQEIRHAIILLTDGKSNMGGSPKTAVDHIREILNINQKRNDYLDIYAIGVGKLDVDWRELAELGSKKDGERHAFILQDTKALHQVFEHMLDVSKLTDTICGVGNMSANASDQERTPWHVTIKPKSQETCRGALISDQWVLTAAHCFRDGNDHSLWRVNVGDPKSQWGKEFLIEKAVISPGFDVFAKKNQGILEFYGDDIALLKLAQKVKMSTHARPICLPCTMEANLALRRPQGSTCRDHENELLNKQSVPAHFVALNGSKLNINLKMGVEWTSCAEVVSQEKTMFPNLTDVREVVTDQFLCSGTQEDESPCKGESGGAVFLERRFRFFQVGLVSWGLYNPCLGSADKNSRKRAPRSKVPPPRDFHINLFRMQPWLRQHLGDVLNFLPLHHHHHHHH

B1: RF16-214 (antibody, V domains shown)
VH: EVQLLESGGGLVQPGGSLRLSCAASGFTFSWYQMMWVRQAPGKGLEWVSRIYPSGGGTAYADSVKGRFTISRDNSKNTLYLQMNSLRAEDTAVYYCARDAGYGDNWGQGTLVTVSS
VL: QSALTQPPSVSVSPGQTASITCSGDKLGEKYASWYQQKAGQSPVMVIYQDRKRPSGIPERFSGSNSGNTATLTISGTQAMDEADYYCQAWDTRAVVFGGGTKLTVLG
- Kd (human C2 G677A): 28.1 nM
- Kd (human C2 N268A): 60.8 nM
- Kd (human C2 D269A): 17.2 nM
- Kd (human C2 N424A): 16.1 nM
